Experimental data reported in PMC8442874.

Biological target: Soc-SpyCatcher fusion protein (displayed on T4 phage: T4-SpyCatcher phage) (bacteriophage T4)
Test: co-sedimentation

S-ecto-6P-SpyTagged trimer (prefusion-stabilized hexa-Pro SARS-CoV-2 spike ectodomain with C-terminal SpyTag) (from UniProt P0DTC2 14-1208) (domain or fragment)
copies per capsid (S-trimers per phage capsid): 100
